Results on two proteins are retold here after FireProtDB (doi:10.1007/s00775-020-01777-0).

A word on the Tm: it is the temperature at the midpoint of the melting transition.

For the series the following is noted: pH 7.4, UV/Vis spectroscopy, HEPES, transition: 2, reversible: > 90% (Yes), whole UniProt chain shown; for denaturant m value / denaturant midpoint (higher = more stable) / unfolding free energy: 15 °C, GdnHCl, potassium ferricyanide; for Tm / unfolding enthalpy (van 't Hoff): Thermal.
[1] abbreviates: Fragilariopsis cylindrus CCMP1102.

B1: Cytochrome c-553 wild type, B8C6L5 (protein)
chain: MKLTIVAALIASASAWTTPKSFESVKAAVAGAAVTAGVAVSPAFAGDVGAGEQIFNANCAACHAGGQNVIMPDKTLEKEALEQYLAGGRNEKAVMTQVTNGKNAMPAFGGRLSDEDIANVASYVIATSEAGWD
As to B1, where the note is “Thalassiosira pseudonana”, the denaturant m value was determined as 2.1 kcal/mol/M, the “denaturant midpoint (higher = more stable)” value turned out to be 1.2 M, the unfolding free energy was 2.63 kcal/mol and the Tm amounted to 39.1 °C. For the same protein, the “unfolding enthalpy (van 't Hoff)” value (Thalassiosira pseudonana) stood at 38.7 kcal/mol.

B2: Cytochrome c-553 wild type, A0A1E7EP28 (protein)
chain: MKFAIFATLLVSASAFSINKADVAKAAAAGAIAFSVAAGPAFAGDVGAGEQIFNANCAACHAGGQNVIMPEKTLEKEALDQYLSGGRSEKSVMTQVTNGKNAMPAFGGRLSEEDIANVASYVISSAEAGWEE
In the case of B2, under setting [1], the denaturant m value came to 4.6 kcal/mol/M, the “denaturant midpoint (higher = more stable)” value was 0.5 M, the unfolding free energy amounted to 2.15 kcal/mol and the Tm was found to be 28.8 °C. Also, the “unfolding enthalpy (van 't Hoff)” value under setting [1] was 44.7 kcal/mol.
